B1: recombinant Lu extracellular domain fused with an Fc-Tag (Lu-Fc), P50895 A149D (protein)
chain: EVRLSVPPLVEVMRGKSVILDCTPTGTHDHYMLEWFLTDRSGARPRLASAEMQGSELQVTMHDTRGRSPPYQLDSQGRLVLAEAQVGDERDYVCVVRAGAAGTAEATARLNVFAKPEDTEVSPNKGTLSVMEDSAQEIATCNSRNGNPAPKITWYRNGQRLEVPVEMNPEGYMTSRTVREASGLLSLTSTLYLRLRKDDRDASFHCAAHYSLPEGRHGRLDSPTFHLTLHYPTEHVQFWVGSPSTPAGWVREGDTVQLLCRGDGSPSPEYTLFRLQDEQEEVLNVNLEGNLTLEGVTRGQSGTYGCRVEDYDAADDVQLSKTLELRVAYLDPLELSEGKVLSLPLNSSAVVNCSVHGLPTPALRWTKDSTPLGDGPMLSLSSITFDSNGTYVCEASLPTVPVLSRTQNFTLLVQGSPELKTAEIEPKADGSWREGDEVTLICSARGHPDPKLSWSQLGGSPAEPIPGRQGWVSSSLTLKVTSALSRDGISCEASNPHGNKRHVFHFGTVSPQTSQA
B2: recombinant Lu extracellular domain fused with an Fc-Tag (Lu-Fc), P50895 R175N (protein)
chain: EVRLSVPPLVEVMRGKSVILDCTPTGTHDHYMLEWFLTDRSGARPRLASAEMQGSELQVTMHDTRGRSPPYQLDSQGRLVLAEAQVGDERDYVCVVRAGAAGTAEATARLNVFAKPEATEVSPNKGTLSVMEDSAQEIATCNSNNGNPAPKITWYRNGQRLEVPVEMNPEGYMTSRTVREASGLLSLTSTLYLRLRKDDRDASFHCAAHYSLPEGRHGRLDSPTFHLTLHYPTEHVQFWVGSPSTPAGWVREGDTVQLLCRGDGSPSPEYTLFRLQDEQEEVLNVNLEGNLTLEGVTRGQSGTYGCRVEDYDAADDVQLSKTLELRVAYLDPLELSEGKVLSLPLNSSAVVNCSVHGLPTPALRWTKDSTPLGDGPMLSLSSITFDSNGTYVCEASLPTVPVLSRTQNFTLLVQGSPELKTAEIEPKADGSWREGDEVTLICSARGHPDPKLSWSQLGGSPAEPIPGRQGWVSSSLTLKVTSALSRDGISCEASNPHGNKRHVFHFGTVSPQTSQA
B3: recombinant Lu extracellular domain fused with an Fc-Tag (Lu-Fc), P50895 P254H (protein)
chain: EVRLSVPPLVEVMRGKSVILDCTPTGTHDHYMLEWFLTDRSGARPRLASAEMQGSELQVTMHDTRGRSPPYQLDSQGRLVLAEAQVGDERDYVCVVRAGAAGTAEATARLNVFAKPEATEVSPNKGTLSVMEDSAQEIATCNSRNGNPAPKITWYRNGQRLEVPVEMNPEGYMTSRTVREASGLLSLTSTLYLRLRKDDRDASFHCAAHYSLPEGRHGRLDSHTFHLTLHYPTEHVQFWVGSPSTPAGWVREGDTVQLLCRGDGSPSPEYTLFRLQDEQEEVLNVNLEGNLTLEGVTRGQSGTYGCRVEDYDAADDVQLSKTLELRVAYLDPLELSEGKVLSLPLNSSAVVNCSVHGLPTPALRWTKDSTPLGDGPMLSLSSITFDSNGTYVCEASLPTVPVLSRTQNFTLLVQGSPELKTAEIEPKADGSWREGDEVTLICSARGHPDPKLSWSQLGGSPAEPIPGRQGWVSSSLTLKVTSALSRDGISCEASNPHGNKRHVFHFGTVSPQTSQA
B4: mouse Lu-Fc (MsLu-Fc), Q9R069 D142A; N168R; H247P (protein)
chain: ELHVSVPPRVEVMRGEQVALDCTPREHPEHYVLEWFLVDGTGARHRLASVEPQGSEFLGTVHSLGRVPPYEVDSRGRLVIAKVQVGDGRDYVCVVKAGAAGTSEATSSVRVFATPEATEVSPNKGTLSVMDQFAQEIATCSSRNGNPVPRITWYRNGQRLEVPMEVNQKGYITIRTVREASGLYSLTSTLYLRLHKDDRDANFHCAAHYDLPSGQHGRLDSPTFRLTLHYPTEHVEFWVGSPSTTEGWVREGDAVQLLCQGDGSPSPEYSFFRQQGTQEEQLNVNLKGNLTLERVHRNQSGIYGCRVEDYDADEEVQLVKKLKLHVAYLDPLELSVPEELFVFLNSSSTVVNCSARGLPTPTVRWTKDSVTLADGPMLSLQSVTFDSAGTYTCEASTPTVPLLSRTQSFQLIVQGAPELKPNEIMPKSGNSWTEGDEVMLTCSARGFPEPKLTWSQRGDTPAEPPFEGRGWKSSSLMVKVTSALSREGVSCEASNIHGKKGHVFHFGSVAPQTAQA
B5: recombinant Lu extracellular domain fused with an Fc-Tag (Lu-Fc), P50895 H257R (protein)
chain: EVRLSVPPLVEVMRGKSVILDCTPTGTHDHYMLEWFLTDRSGARPRLASAEMQGSELQVTMHDTRGRSPPYQLDSQGRLVLAEAQVGDERDYVCVVRAGAAGTAEATARLNVFAKPEATEVSPNKGTLSVMEDSAQEIATCNSRNGNPAPKITWYRNGQRLEVPVEMNPEGYMTSRTVREASGLLSLTSTLYLRLRKDDRDASFHCAAHYSLPEGRHGRLDSPTFRLTLHYPTEHVQFWVGSPSTPAGWVREGDTVQLLCRGDGSPSPEYTLFRLQDEQEEVLNVNLEGNLTLEGVTRGQSGTYGCRVEDYDAADDVQLSKTLELRVAYLDPLELSEGKVLSLPLNSSAVVNCSVHGLPTPALRWTKDSTPLGDGPMLSLSSITFDSNGTYVCEASLPTVPVLSRTQNFTLLVQGSPELKTAEIEPKADGSWREGDEVTLICSARGHPDPKLSWSQLGGSPAEPIPGRQGWVSSSLTLKVTSALSRDGISCEASNPHGNKRHVFHFGTVSPQTSQA
B6: recombinant Lu extracellular domain fused with an Fc-Tag (Lu-Fc), P50895 E245S (protein)
chain: EVRLSVPPLVEVMRGKSVILDCTPTGTHDHYMLEWFLTDRSGARPRLASAEMQGSELQVTMHDTRGRSPPYQLDSQGRLVLAEAQVGDERDYVCVVRAGAAGTAEATARLNVFAKPEATEVSPNKGTLSVMEDSAQEIATCNSRNGNPAPKITWYRNGQRLEVPVEMNPEGYMTSRTVREASGLLSLTSTLYLRLRKDDRDASFHCAAHYSLPSGRHGRLDSPTFHLTLHYPTEHVQFWVGSPSTPAGWVREGDTVQLLCRGDGSPSPEYTLFRLQDEQEEVLNVNLEGNLTLEGVTRGQSGTYGCRVEDYDAADDVQLSKTLELRVAYLDPLELSEGKVLSLPLNSSAVVNCSVHGLPTPALRWTKDSTPLGDGPMLSLSSITFDSNGTYVCEASLPTVPVLSRTQNFTLLVQGSPELKTAEIEPKADGSWREGDEVTLICSARGHPDPKLSWSQLGGSPAEPIPGRQGWVSSSLTLKVTSALSRDGISCEASNPHGNKRHVFHFGTVSPQTSQA
B7: recombinant Lu extracellular domain fused with an Fc-Tag (Lu-Fc), P50895 S242D (protein)
chain: EVRLSVPPLVEVMRGKSVILDCTPTGTHDHYMLEWFLTDRSGARPRLASAEMQGSELQVTMHDTRGRSPPYQLDSQGRLVLAEAQVGDERDYVCVVRAGAAGTAEATARLNVFAKPEATEVSPNKGTLSVMEDSAQEIATCNSRNGNPAPKITWYRNGQRLEVPVEMNPEGYMTSRTVREASGLLSLTSTLYLRLRKDDRDASFHCAAHYDLPEGRHGRLDSPTFHLTLHYPTEHVQFWVGSPSTPAGWVREGDTVQLLCRGDGSPSPEYTLFRLQDEQEEVLNVNLEGNLTLEGVTRGQSGTYGCRVEDYDAADDVQLSKTLELRVAYLDPLELSEGKVLSLPLNSSAVVNCSVHGLPTPALRWTKDSTPLGDGPMLSLSSITFDSNGTYVCEASLPTVPVLSRTQNFTLLVQGSPELKTAEIEPKADGSWREGDEVTLICSARGHPDPKLSWSQLGGSPAEPIPGRQGWVSSSLTLKVTSALSRDGISCEASNPHGNKRHVFHFGTVSPQTSQA
B8: recombinant Lu extracellular domain fused with an Fc-Tag (Lu-Fc), P50895 R247Q (protein)
chain: EVRLSVPPLVEVMRGKSVILDCTPTGTHDHYMLEWFLTDRSGARPRLASAEMQGSELQVTMHDTRGRSPPYQLDSQGRLVLAEAQVGDERDYVCVVRAGAAGTAEATARLNVFAKPEATEVSPNKGTLSVMEDSAQEIATCNSRNGNPAPKITWYRNGQRLEVPVEMNPEGYMTSRTVREASGLLSLTSTLYLRLRKDDRDASFHCAAHYSLPEGQHGRLDSPTFHLTLHYPTEHVQFWVGSPSTPAGWVREGDTVQLLCRGDGSPSPEYTLFRLQDEQEEVLNVNLEGNLTLEGVTRGQSGTYGCRVEDYDAADDVQLSKTLELRVAYLDPLELSEGKVLSLPLNSSAVVNCSVHGLPTPALRWTKDSTPLGDGPMLSLSSITFDSNGTYVCEASLPTVPVLSRTQNFTLLVQGSPELKTAEIEPKADGSWREGDEVTLICSARGHPDPKLSWSQLGGSPAEPIPGRQGWVSSSLTLKVTSALSRDGISCEASNPHGNKRHVFHFGTVSPQTSQA
B9: mouse Lu-Fc (MsLu-Fc), Q9R069 Q240R (protein)
chain: ELHVSVPPRVEVMRGEQVALDCTPREHPEHYVLEWFLVDGTGARHRLASVEPQGSEFLGTVHSLGRVPPYEVDSRGRLVIAKVQVGDGRDYVCVVKAGAAGTSEATSSVRVFATPEDTEVSPNKGTLSVMDQFAQEIATCSSNNGNPVPRITWYRNGQRLEVPMEVNQKGYITIRTVREASGLYSLTSTLYLRLHKDDRDANFHCAAHYDLPSGRHGRLDSHTFRLTLHYPTEHVEFWVGSPSTTEGWVREGDAVQLLCQGDGSPSPEYSFFRQQGTQEEQLNVNLKGNLTLERVHRNQSGIYGCRVEDYDADEEVQLVKKLKLHVAYLDPLELSVPEELFVFLNSSSTVVNCSARGLPTPTVRWTKDSVTLADGPMLSLQSVTFDSAGTYTCEASTPTVPLLSRTQSFQLIVQGAPELKPNEIMPKSGNSWTEGDEVMLTCSARGFPEPKLTWSQRGDTPAEPPFEGRGWKSSSLMVKVTSALSREGVSCEASNIHGKKGHVFHFGSVAPQTAQA

The target of the first assay is C7 scFv (soluble, purified). Kind of assay: competition ELISA. As to conditions: chain shown with the change; C7 scFv 0.6 μg/ml mixed with the mutant protein; competition format: a low value means the soluble protein binds the scFv; parent: est. 5; read off a plot.
Sequence of C7 scFv (soluble, purified) (chain, as listed by the source, chain 1 of 2): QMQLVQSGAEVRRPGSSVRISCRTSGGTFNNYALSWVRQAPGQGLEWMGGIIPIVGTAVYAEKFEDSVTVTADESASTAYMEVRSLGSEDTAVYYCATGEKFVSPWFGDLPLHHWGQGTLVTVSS
Sequence of C7 scFv (soluble, purified) (chain, as listed by the source, chain 2 of 2): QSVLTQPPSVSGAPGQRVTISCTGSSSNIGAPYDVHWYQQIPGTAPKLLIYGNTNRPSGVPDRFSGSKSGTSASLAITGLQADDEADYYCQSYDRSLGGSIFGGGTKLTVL
Turning to B1, the other: Relative binding (residual antibody binding to coated antigen with the mutant protein as competitor) was 3%.

As to B2, the other: Relative binding (residual antibody binding to coated antigen with the mutant protein as competitor) is 4%.

As for B3, the other: Relative binding (residual antibody binding to coated antigen with the mutant protein as competitor) came out at 3%.

The assay is the same for the next values; noted with them: chain shown with the change; C7 scFv 0.6 μg/ml mixed with the mutant protein; competition format: a low value means the soluble protein binds the scFv; parent: est. 110; read off a plot.
For the molecule B4, the other: Relative binding (residual antibody binding to coated antigen with the mutant protein as competitor) worked out at 95%.

Staying with this assay, now noted: chain shown with the change; mutant protein mixed with diluted C7 scFv; wells coated with Lu-Fc; competition format: a low value means the soluble protein binds the scFv; read off a plot.
B5 yielded an other: Relative binding (residual antibody binding to coated Lu-Fc with the mutant protein as competitor) of 3%.

Turning to B6, the other: Relative binding (residual antibody binding to coated Lu-Fc with the mutant protein as competitor) was found to be 22%.

With B7, the other: Relative binding (residual antibody binding to coated Lu-Fc with the mutant protein as competitor) is 18%.

B8: the other: Relative binding (residual antibody binding to coated Lu-Fc with the mutant protein as competitor) came out at 87%.

Take B9: the other: Relative binding (residual antibody binding to coated Lu-Fc with the mutant protein as competitor) came out at 14%.

Values taken from paper PMC5218393.
